# Measurements published in patent publication US20130273053.
# How the values were obtained:
# [1] = molecular target: purified plasma factor B (UniProt P00751)
# [2] = molecular target: ST-pro-factor D-His (UniProt P00746)
# Chain of ST-pro-factor D-His (P00746 21-253): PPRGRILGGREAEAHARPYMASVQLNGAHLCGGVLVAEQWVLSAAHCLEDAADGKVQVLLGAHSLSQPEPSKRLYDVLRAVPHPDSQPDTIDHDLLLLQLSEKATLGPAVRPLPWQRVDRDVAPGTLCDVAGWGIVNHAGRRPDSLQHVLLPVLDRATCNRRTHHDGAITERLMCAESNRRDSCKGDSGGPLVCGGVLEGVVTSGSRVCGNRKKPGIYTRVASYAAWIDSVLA
# Chain of full length recombinant human MASP-3 (active) (chain): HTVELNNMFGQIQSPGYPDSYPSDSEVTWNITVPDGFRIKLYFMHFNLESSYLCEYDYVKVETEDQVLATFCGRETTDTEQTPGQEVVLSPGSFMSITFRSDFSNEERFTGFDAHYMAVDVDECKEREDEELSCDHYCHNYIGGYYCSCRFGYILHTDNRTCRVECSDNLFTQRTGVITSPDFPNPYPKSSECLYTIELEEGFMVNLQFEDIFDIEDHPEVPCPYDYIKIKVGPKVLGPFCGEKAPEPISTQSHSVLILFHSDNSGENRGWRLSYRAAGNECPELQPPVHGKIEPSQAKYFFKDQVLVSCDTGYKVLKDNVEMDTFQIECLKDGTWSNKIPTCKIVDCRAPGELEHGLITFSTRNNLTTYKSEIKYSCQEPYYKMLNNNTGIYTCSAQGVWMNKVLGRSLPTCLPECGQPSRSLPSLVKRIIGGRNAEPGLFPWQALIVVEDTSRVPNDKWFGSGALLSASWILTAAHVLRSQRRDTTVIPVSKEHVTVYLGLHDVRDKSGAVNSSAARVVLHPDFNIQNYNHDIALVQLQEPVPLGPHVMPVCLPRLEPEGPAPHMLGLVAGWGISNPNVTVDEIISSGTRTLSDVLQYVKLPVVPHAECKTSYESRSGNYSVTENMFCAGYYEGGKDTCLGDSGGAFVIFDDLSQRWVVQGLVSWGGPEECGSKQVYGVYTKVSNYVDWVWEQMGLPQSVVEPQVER
# Chain of purified plasma factor B (P00751 26-764): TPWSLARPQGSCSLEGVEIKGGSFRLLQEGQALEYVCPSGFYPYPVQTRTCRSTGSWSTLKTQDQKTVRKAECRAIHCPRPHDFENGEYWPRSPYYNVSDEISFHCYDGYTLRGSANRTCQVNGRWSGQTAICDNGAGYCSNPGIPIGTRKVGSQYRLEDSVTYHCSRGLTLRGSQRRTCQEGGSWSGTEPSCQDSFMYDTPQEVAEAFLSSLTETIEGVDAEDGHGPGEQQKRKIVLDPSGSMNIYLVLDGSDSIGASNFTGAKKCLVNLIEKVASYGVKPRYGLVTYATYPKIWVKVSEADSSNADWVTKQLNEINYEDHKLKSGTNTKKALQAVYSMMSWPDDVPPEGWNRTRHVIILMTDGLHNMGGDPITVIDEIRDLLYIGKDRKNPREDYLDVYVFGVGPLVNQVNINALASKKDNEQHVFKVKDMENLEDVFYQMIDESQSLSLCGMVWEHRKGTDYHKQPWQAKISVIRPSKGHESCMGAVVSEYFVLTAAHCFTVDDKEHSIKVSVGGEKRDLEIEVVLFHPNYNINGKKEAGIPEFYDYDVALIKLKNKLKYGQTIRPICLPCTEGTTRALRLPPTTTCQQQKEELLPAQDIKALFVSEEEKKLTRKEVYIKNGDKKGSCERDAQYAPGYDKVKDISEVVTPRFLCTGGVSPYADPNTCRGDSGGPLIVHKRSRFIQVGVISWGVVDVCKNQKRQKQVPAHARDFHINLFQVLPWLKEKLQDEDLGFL
substance,measurement,setting,value
full length recombinant human MASP-3 (active),"factor B cleavage, Coomassie-stained SDS-PAGE, with C3(H2O)",[1],"either MASP-3 or pro-factor D are able to mediate factor B cleavage, as long as C3 is present"
same,"cleavage of pro-factor D substrate, Western blot",[2],only full length MASP-3 (lane 2) and the MASP-1 CCP1-CCP2-SP) fragment (lane 5) cleaved ST-pro-factor D-His6
same,"cleavage of pro-factor D to factor D, Western blot, no mAb",[2],MASP-3 cleaves approximately 50% of pro-factor D into factor D
